Measured values published in patent publication US20250283117, “RNA-GUIDED NUCLEASES AND ACTIVE FRAGMENTS AND VARIANTS THEREOF AND METHODS OF USE” (Life Edit Therapeutics, Inc., published 2025).

T1: APG07433.1 (Bacillus sp.)
T1 sequence: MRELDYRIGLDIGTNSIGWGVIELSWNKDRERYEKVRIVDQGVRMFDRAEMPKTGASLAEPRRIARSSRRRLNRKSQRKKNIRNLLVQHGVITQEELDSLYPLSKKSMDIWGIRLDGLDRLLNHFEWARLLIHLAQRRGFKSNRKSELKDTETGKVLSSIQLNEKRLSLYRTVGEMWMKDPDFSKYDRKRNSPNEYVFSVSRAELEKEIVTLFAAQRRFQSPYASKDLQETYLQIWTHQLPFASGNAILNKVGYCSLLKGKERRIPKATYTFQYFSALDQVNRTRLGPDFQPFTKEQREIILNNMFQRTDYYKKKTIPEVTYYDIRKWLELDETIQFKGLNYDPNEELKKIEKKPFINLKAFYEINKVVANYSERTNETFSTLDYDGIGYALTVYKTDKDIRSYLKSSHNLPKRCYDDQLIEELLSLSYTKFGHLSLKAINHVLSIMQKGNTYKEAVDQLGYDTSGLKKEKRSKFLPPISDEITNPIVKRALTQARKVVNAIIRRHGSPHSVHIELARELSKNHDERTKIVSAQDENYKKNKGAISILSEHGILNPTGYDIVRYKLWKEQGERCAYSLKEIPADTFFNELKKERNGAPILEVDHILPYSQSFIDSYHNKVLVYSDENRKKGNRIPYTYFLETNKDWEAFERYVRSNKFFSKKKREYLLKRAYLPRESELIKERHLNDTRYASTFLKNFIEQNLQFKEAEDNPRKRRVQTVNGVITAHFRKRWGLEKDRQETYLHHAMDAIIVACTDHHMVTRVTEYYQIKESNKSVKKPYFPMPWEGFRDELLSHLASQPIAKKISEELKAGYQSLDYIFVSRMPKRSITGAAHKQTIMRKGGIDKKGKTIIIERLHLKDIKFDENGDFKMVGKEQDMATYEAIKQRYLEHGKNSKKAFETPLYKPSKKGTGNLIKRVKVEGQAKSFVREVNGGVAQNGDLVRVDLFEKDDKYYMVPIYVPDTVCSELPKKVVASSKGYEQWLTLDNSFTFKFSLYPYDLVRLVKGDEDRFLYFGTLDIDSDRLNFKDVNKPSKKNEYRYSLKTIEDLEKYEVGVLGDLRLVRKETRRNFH

T2: APG07433.1 (Bacillus sp.)
T2 chain: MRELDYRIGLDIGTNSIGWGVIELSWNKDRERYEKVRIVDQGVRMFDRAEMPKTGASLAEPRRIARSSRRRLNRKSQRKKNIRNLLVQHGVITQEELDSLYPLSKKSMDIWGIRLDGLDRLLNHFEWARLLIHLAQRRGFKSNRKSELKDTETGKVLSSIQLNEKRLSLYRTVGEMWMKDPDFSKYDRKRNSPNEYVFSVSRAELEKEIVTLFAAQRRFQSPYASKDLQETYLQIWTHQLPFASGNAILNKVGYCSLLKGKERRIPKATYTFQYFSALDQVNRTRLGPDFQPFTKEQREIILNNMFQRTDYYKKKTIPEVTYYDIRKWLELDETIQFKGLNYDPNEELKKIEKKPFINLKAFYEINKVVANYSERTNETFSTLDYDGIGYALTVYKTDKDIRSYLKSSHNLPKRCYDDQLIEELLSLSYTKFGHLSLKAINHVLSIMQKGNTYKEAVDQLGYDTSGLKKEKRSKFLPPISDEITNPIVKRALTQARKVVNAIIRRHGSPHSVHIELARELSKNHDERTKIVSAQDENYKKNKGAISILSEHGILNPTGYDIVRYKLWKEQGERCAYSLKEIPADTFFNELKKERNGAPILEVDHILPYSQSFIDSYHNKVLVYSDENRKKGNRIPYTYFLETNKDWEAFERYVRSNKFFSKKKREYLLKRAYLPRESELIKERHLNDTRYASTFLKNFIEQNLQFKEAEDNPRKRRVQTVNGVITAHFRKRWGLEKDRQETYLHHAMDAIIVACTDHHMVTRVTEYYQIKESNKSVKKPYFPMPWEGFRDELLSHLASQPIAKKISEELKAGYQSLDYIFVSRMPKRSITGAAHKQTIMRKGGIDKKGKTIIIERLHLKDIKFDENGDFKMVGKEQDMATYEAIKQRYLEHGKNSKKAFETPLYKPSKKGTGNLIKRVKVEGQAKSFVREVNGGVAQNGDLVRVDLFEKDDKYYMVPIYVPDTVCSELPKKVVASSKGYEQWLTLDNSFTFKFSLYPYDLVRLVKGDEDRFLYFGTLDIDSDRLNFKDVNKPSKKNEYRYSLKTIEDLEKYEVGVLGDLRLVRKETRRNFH

T3: APG07513.1 (Bacillus sp.)
T3 chain: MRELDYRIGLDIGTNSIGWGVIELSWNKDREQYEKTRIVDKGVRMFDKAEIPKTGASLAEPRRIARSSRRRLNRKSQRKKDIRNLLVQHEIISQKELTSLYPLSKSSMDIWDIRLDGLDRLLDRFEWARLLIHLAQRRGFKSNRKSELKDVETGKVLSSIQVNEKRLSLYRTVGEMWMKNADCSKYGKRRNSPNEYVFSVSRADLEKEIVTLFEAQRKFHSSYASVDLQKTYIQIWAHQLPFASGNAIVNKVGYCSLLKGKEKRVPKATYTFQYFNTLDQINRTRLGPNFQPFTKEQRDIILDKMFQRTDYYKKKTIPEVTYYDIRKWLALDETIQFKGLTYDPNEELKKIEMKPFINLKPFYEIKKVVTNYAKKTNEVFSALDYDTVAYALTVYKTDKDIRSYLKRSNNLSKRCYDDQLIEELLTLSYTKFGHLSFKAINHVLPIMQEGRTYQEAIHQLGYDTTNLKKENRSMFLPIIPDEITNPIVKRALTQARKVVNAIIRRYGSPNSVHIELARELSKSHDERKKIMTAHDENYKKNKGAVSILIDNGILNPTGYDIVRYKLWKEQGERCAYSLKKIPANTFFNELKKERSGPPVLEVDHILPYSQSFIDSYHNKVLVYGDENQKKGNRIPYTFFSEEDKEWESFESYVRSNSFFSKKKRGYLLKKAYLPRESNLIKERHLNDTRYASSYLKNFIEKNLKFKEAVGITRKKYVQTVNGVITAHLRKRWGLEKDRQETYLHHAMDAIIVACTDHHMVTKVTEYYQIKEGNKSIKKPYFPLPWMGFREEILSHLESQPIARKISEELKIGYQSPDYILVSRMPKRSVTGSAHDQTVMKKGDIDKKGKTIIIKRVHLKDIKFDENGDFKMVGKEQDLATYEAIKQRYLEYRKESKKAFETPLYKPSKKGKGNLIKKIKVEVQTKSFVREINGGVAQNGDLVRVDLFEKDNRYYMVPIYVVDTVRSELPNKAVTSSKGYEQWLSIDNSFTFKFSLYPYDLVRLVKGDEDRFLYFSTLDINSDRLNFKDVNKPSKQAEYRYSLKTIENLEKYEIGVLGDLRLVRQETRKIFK


Assays:
[1] = test system: T1, APG07433.1 (Bacillus sp.); experiment: cleavage_in_vitro; details: PAM NNNNCC; NTS cut 4, TS cut 3, 1 nt 5' overhang (Table 3)
[2] = target: T2, APG07433.1; experiment: cell_activity; HEK293T; PAM NNNNCC; details: tags: human cells: N-term SV40 NLS and 3xFLAG, C-term nucleoplasmin NLS
Experimental: (§1) The constructs described above were introduced into mammalian cells. One day prior to transfection, 1×10⁵ HEK293T cells/well (Sigma) were plated in 24-well dishes in Dulbecco's modified Eagle medium (DMEM) plus 10% (vol/vol) fetal bovine serum (Gibco) and 1% Penicillin-Streptomycin (Gibco). The next day when the cells were at 50-60% confluency, 500 ng of a RGN expression plasmid plus 500 ng of a single gRNA expression plasmid were co-transfected using […] of Lipofectamine 3000 (Thermo Scientific) per well, following the manufacturer's instructions. After 48 hours of growth, total genomic DNA was harvested using a genomic DNA isolation kit (Machery-Nagel) according to the manufacturer's instructions.
(§2) Additionally, products from PCR #2 containing Illumina overhang sequences underwent library preparation following the Illumina 16S Metagenomic Sequencing Library protocol. Deep sequencing was performed on an Illumina Mi-Seq platform by a service provider (MOGene). Typically 200,000 of 250 bp paired-end reads (2×100,000 reads) are generated per amplicon. The reads were analyzed using CRISPResso (Pinello, et al. 2016 Nature Biotech, 34:695-697) to calculate the rates of editing. Output alignments were hand-curated to confirm insertion and deletion sites as well as identify microhomology sites at the recombination sites. All experiments were performed in human cells. The “target sequence” is the targeted sequence within the gene target. For each target sequence, the guide RNA comprised the complementary RNA target sequence and the appropriate sgRNA depending on the RGN used.

[3] = target: T3, APG07513.1; experiment: cell_activity; HEK293T; PAM NNNNCC; details: tags: E. coli pRSF-1b expression; human cells: N-term SV40 NLS and 3xFLAG, C-term nucleoplasmin NLS
Experimental: as §1, §2

Row | Molecule | activity [3] | also measured
1 | GAGCGGACAGCAGCUUCCUAUAUCUCGUACNNNNNNNNNNNNNNNNNNNNNNNNNGUCAUAGUUCCAUUAAAGCCAAAAGUGGCUUUGAUGUUUCUAUGAUAAGGGUUUCGACCCGUGGCGUCGGGGAUCGCCUGCCCAUUGAAAUGGGCUUCUCCCCAUUUAUU / GAGCGGACAGCAGCTTCCTATATCTCGTAC / GTACGAGATATAGGAAGCTGCTGTCCGCTC [Sequence 1 sgRNA for APG07433.1 ; Sequence 1 target] | – | activity [1]: 86 % cleaved
2 | Guide 173 ; HPRT1 target of guide 173 (ssRNA ; dsDNA) RNA: CUUCUAUAGCCUCCUUCCCCGUCAUAGUUCCAUUAAAGCCAAAAGUGGCUUUGAUGUUUCUAUGAUAAGGGUUUCGACCCGUGGCGUCGGGGAUCGCCUGCCCAUUGAAAUGGGCUUCUCCCCAUUUAUU DNA 1: CTTCTATAGCCTCCTTCCCC DNA 2: GGGGAAGGAGGCTATAGAAG | – | activity [2]: 26.6 % editing
3 | Guide 144 ; AurkB target of guide 144 (ssRNA ; dsDNA) RNA: CAUGGCAGUACAUUAGAGCAGUCAUAGUUCCAUUAAAGCCAUUGCUGAAAGACAGCAAUGGCUUUGAUGUUUCUAUGAUAAGGGCUUCGGCCCGUGGCGUUGGGGAUCGCCUGCCCAUUUUAAUGGGCUUCUCCCCAUCUAUUU DNA 1: CATGGCAGTACATTAGAGCA DNA 2: TGCTCTAATGTACTGCCATG | 2.4 % editing | –
4 | Guide 136 ; AurkB target of guide 136 (ssRNA ; dsDNA) RNA: GGGCCAUUAAAACCUCUCCAGUCAUAGUUCCAUUAAAGCCAUUGCUGAAAGACAGCAAUGGCUUUGAUGUUUCUAUGAUAAGGGCUUCGGCCCGUGGCGUUGGGGAUCGCCUGCCCAUUUUAAUGGGCUUCUCCCCAUCUAUUU DNA 1: GGGCCATTAAAACCTCTCCA DNA 2: TGGAGAGGTTTTAATGGCCC | 0.9 % editing | –
